Measurements published in doi:10.1101/553800.

Molecular target: hRIO2(1-321)Δ(131-146) (human) (UniProt Q9BVS4)
Experiment: AUC

hRIO2(1-321)Δ(131-146) (from UniProt Q9BVS4 1-321) (domain or fragment)
percent dimer at 27 μM: > 20% | stoichiometry N: 2
